Reference: publication PMC6719858, “Mitochondrial single-stranded DNA binding protein novel de novo SSBP1 mutation in a child with single large-scale mtDNA deletion (SLSMD) clinically manifesting as Pearson, Kearns-Sayre, and Leigh syndromes” (PLoS ONE, 2019)

Legend:
[1] = target: the molecule itself; test: SEC; Superdex 200 10/300 GL, AKTA FPLC, Storage Buffer (30 mM HEPES-KOH pH 7.6, 250 mM KCl, 0.25 mM EDTA, 2 mM dithiothreitol, 10% glycerol); purified recombinant protein; single peak read as tetramer
SSBP1 WT (mtSSB) = target: T1, SSBP1 WT (mtSSB) (human, UniProt Q04837 17-148); test: fluorescence anisotropy; 5 mM MgCl2; apparent Kd, protein as tetramer; 20 nM DNA; quadratic fit; 30 mM HEPES-KOH pH 7.6, 50 mM KCl, 2 mM DTT, 5 mM MgCl2, 20 nM FAM-oligonucleotide, 37 C; conditions: protein: recombinant; chain copies: 4; label: 3' FAM (fluorescein); single strand
T1 sequence: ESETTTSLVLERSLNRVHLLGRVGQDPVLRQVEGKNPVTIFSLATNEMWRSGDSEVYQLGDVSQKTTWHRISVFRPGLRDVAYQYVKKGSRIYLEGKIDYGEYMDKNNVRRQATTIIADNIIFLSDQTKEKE

SSBP1 p.E27K = target: T2, SSBP1 p.E27K (human, UniProt Q04837 17-148, E27K); test: fluorescence anisotropy; 5 mM MgCl2; apparent Kd, protein as tetramer; 20 nM DNA; quadratic fit; plateau anisotropy about 1.4-fold higher than WT; 30 mM HEPES-KOH pH 7.6, 50 mM KCl, 2 mM DTT, 5 mM MgCl2, 20 nM FAM-oligonucleotide, 37 C; conditions: protein: recombinant; chain copies: 4; label: 3' FAM (fluorescein); single strand
T2 sequence: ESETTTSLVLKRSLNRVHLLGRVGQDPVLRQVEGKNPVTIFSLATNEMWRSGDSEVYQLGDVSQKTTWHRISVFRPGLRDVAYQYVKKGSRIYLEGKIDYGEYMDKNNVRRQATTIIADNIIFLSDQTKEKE

B1: wild-type human mitochondrial single-stranded DNA-binding protein (SSBP1) (natural protein, UniProt Q04837 17-148, looked up)
chain: ESETTTSLVLERSLNRVHLLGRVGQDPVLRQVEGKNPVTIFSLATNEMWRSGDSEVYQLGDVSQKTTWHRISVFRPGLRDVAYQYVKKGSRIYLEGKIDYGEYMDKNNVRRQATTIIADNIIFLSDQTKEKE
notes: No tag is mentioned; also called WT SSBP1; HmtSSB; source: E. coli BL21(DE3), purified (Affi-Gel Blue, MonoQ, Superdex 200)
Q: B1 was tested. Which “stoichiometry N” value [1] did it give?
A: The value was 4.

B2: p.E27K human mitochondrial single-stranded DNA-binding protein (SSBP1) (natural protein, UniProt Q04837 17-148, looked up)
chain: ESETTTSLVLKRSLNRVHLLGRVGQDPVLRQVEGKNPVTIFSLATNEMWRSGDSEVYQLGDVSQKTTWHRISVFRPGLRDVAYQYVKKGSRIYLEGKIDYGEYMDKNNVRRQATTIIADNIIFLSDQTKEKE
notes: Homotetramer of four mutant chains; The variant was found de novo in a patient; No tag is mentioned; also called p.E27K SSBP1; E27K SSBP1; source: E. coli BL21(DE3), purified (Affi-Gel Blue, MonoQ, Superdex 200)
Q: With B2 as the binder, how does the “stoichiometry N” value [1] read?
A: The value was 4.

Q: With AATGCTATCACTATTCGTAGACTTGACCACACCTTGTCAGCTCACGCTCC (ssDNA) [FAM-labeled 50 nt ssDNA] as the binder, how does the Kd (SSBP1 WT (mtSSB)) read?
A: Its Kd is 2.3 nM.

Q: And the Kd (SSBP1 p.E27K)?
A: Its Kd is 9.3 nM.
